Source: IntAct's records for PubMed 31515488

B1: AP-4 complex accessory subunit RUSC1 (Homo sapiens), Q9BVN2 (parent)
chain: MLSPQRALLCNLNHIHLQHVSLGLHLSRRPELQEGPLSTPPPPGDTGGKESRGPCSGTLVDANSNSPAVPCRCCQEHGPGLENRQDPSQEEEGAASPSDPGCSSSLSSCSDLSPDESPVSVYLRDLPGDEDAHPQPSIIPLEQGSPLASAGPGTCSPDSFCCSPDSCSGASSSPDPGLDSNCNALTTCQDVPSPGLEEEDERAEQDLPTSELLEADDGKIDAGKTEPSWKINPIWKIDTEKTKAEWKTTENNNTGWKNNGNVNSSWKSEPEKFDSGWKTNTRITDSGSKTDAGKIDGGWRSDVSEEPVPHRTITSFHELAQKRKRGPGLPLVPQAKKDRSDWLIVFSPDTELPPSGSPGGSSAPPREVTTFKELRSRSRAPAPPVPPRDPPVGWALVPPRPPPPPVPPRRKKNRPGLQPIAEGQSEEGRAVSPAAGEEAPAAKEPGAQAGLEVRSSWSFAGVPGAQRLWMAEAQSGTGQLQEQKKGLLIAVSVSVDKIISHFGAARNLVQKAQLGDSRLSPDVGHLVLTTLCPALHALVADGLKPFRKDLITGQRRSSPWSVVEASVKPGSSTRSLGTLYSQVSRLAPLSSSRSRFHAFILGLLNTKQLELWFSSLQEDAGLLSLLYLPTGFFSLARGGCPSLSTELLLLLQPLSVLTFHLDLLFEHHHHLPLGPPQAPAPPGPPPALQQTMQAMLHFGGRLAQSLRGTSKEAASDPSDSPNLPTPGSWWEQLTQASRVYASGGTEGFPLSRWAPGRHGTAAEEGAQERPLPTDEMAPGRGLWLGRLFGVPGGPAENENGALKSRRPSSWLPPTVSVLALVKRGAPPEMPSPQELEASAPRMVQTHRAVRALCDHTAARPDQLSFRRGEVLRVITTVDEDWLRCGRDGMEGLVPVGYTSLVL
B2: Cyclin-D1-binding protein 1 (Homo sapiens), O95273 (parent)
chain: MASATAPAAAVPTLASPLEQLRHLAEELRLLLPRVRVGEAQETTEEFNREMFWRRLNEAAVTVSREATTLTIVFSQLPLPSPQETQKFCEQVHAAIKAFIAVYYLLPKDQGITLRKLVRGATLDIVDGMAQLMEVLSVTPTQSPENNDLISYNSVWVACQQMPQIPRDNKAAALLMLTKNVDFVKDAHEEMEQAVEECDPYSGLLNDTEENNSDNHNHEDDVLGFPSNQDLYWSEDDQELIIPCLALVRASKACLKKIRMLVAENGKKDQVAQLDDIVDISDEISPSVDDLALSIYPPMCHLTVRINSAKLVSVLKKALEITKASHVTPQPEDSWIPLLINAIDHCMNRIKELTQSELEL
partner: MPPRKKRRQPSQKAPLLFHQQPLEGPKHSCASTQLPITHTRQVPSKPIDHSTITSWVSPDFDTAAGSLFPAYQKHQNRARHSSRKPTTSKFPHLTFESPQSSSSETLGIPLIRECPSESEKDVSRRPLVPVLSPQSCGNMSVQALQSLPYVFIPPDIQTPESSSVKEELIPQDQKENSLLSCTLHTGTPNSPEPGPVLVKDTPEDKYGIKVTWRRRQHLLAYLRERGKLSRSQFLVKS

Variants of: B1
Conditions: with pnma1_human PNMA1, Q8ND90
Sequence of pnma1_human PNMA1, Q8ND90 (Q8ND90 whole entry): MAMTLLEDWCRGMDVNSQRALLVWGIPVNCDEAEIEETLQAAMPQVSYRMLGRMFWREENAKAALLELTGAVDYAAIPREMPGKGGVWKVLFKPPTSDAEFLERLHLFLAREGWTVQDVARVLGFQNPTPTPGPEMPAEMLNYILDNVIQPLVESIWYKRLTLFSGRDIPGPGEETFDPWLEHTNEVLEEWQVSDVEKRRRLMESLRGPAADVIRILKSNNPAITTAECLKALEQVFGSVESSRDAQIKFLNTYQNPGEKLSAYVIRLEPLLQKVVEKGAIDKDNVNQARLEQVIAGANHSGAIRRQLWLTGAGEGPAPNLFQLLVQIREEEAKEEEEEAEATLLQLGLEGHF

Variant | effect of a mutation on the interaction
S614F | with no effect
G638S | with no effect

The next lines start with the values.

effect of a mutation on the interaction | Variant
with no effect | F665S
with no effect | D880Y

Variants of: B1
Conditions: with fam9b_human FAM9B

Variant | effect of a mutation on the interaction
S614F | disrupting interaction strength
G638S | with no effect

The remaining lines, values ahead:

effect of a mutation on the interaction | Variant
with no effect | F665S
with no effect | D880Y

Variants of: B1
Conditions: with rbpms_human RBPMS

effect of a mutation on the interaction | Variant
with no effect | A795T
with no effect | S614F
with no effect | G638S

Variants of: B2
Conditions: with rhno1_human RHNO1, Q9BSD3

effect of a mutation on the interaction | Variant
disrupting interaction strength | I277T
